According to the supplement of paper PMC10567573:

B1: C1orf137 (parent)
chain: LPQETNLTLKVCKPQAPQKLDPTL

Variants of: B1
Assay: protein stability index of a GFP-peptide fusion (GPS, HEK-293T) (PSI 1-6); higher = more stable
Details: c terminus: a fixed tail appended
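Note: lentivirally expressed fusions sorted by FACS into six bins by GFP to DsRed ratio, PSI derived from sequencing read proportions per bin multiplied by bin number.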

Q: Which protein stability index does the source give for LPQELNLTLKVCKPQAPQKLDPTL here?
A: 2.69

Q: With LPQEVNLTLKVCKPQAPQKLDPTL as the variant, how does the protein stability index read?
A: 3.04

Q: With LPQEYNLTLKVCKPQAPQKLDPTL as the variant, how does the protein stability index read?
A: 2.88

Q: Which protein stability index does the source give for LPQEENLTLKVCKPQAPQKLDPTL here?
A: 4.2

Q: Which protein stability index does the source give for LPQEFNLTLKVCKPQAPQKLDPTL here?
A: 2.77

Q: With LPQEMNLTLKVCKPQAPQKLDPTL as the variant, how does the protein stability index read?
A: 3.58

Q: Which protein stability index does the source give for LPQEANLTLKVCKPQAPQKLDPTL here?
A: 4.02

Q: With LPQESNLTLKVCKPQAPQKLDPTL as the variant, how does the protein stability index read?
A: 3.9

Q: With LPQEINLTLKVCKPQAPQKLDPTL as the variant, how does the protein stability index read?
A: 2.6

Q: For LPQEKNLTLKVCKPQAPQKLDPTL, which protein stability index is on record?
A: 3.64

Q: With LPQEDNLTLKVCKPQAPQKLDPTL as the variant, how does the protein stability index read?
A: 4.38

Q: Which protein stability index does the source give for LPQEPNLTLKVCKPQAPQKLDPTL here?
A: 4.59

Q: With LPQEQNLTLKVCKPQAPQKLDPTL as the variant, how does the protein stability index read?
A: 4.33

Q: Which protein stability index does the source give for LPQEGNLTLKVCKPQAPQKLDPTL here?
A: 3.75

Q: With LPQERNLTLKVCKPQAPQKLDPTL as the variant, how does the protein stability index read?
A: 3.6

Q: Which protein stability index does the source give for LPQECNLTLKVCKPQAPQKLDPTL here?
A: 2.99

Q: For LPQENNLTLKVCKPQAPQKLDPTL, which protein stability index is on record?
A: 3.69

Q: With LPQEHNLTLKVCKPQAPQKLDPTL as the variant, how does the protein stability index read?
A: 4

Q: With LPQETNLSLKVCKPQAPQKLDPTL as the variant, how does the protein stability index read?
A: 4.3

Q: With LPQETNLALKVCKPQAPQKLDPTL as the variant, how does the protein stability index read?
A: 4.3

Q: Which protein stability index does the source give for LPQETNLFLKVCKPQAPQKLDPTL here?
A: 2.9

Q: With LPQETNLQLKVCKPQAPQKLDPTL as the variant, how does the protein stability index read?
A: 4.21

Q: Which protein stability index does the source give for LPQETNLELKVCKPQAPQKLDPTL here?
A: 4.14

Q: For LPQETNLNLKVCKPQAPQKLDPTL, which protein stability index is on record?
A: 4.11

Q: For LPQETNLHLKVCKPQAPQKLDPTL, which protein stability index is on record?
A: 3.88

Q: Which protein stability index does the source give for LPQETNLWLKVCKPQAPQKLDPTL here?
A: 2.64

Q: Which protein stability index does the source give for LPQETNLKLKVCKPQAPQKLDPTL here?
A: 3.57

Q: Which protein stability index does the source give for LPQETNLPLKVCKPQAPQKLDPTL here?
A: 4.53

Q: Which protein stability index does the source give for LPQETNLLLKVCKPQAPQKLDPTL here?
A: 3.95

Q: For LPQETNLCLKVCKPQAPQKLDPTL, which protein stability index is on record?
A: 4.15

Q: For LPQETNLGLKVCKPQAPQKLDPTL, which protein stability index is on record?
A: 4.55

Q: For LPQETNLDLKVCKPQAPQKLDPTL, which protein stability index is on record?
A: 3.21

Q: Which protein stability index does the source give for LPQETNLYLKVCKPQAPQKLDPTL here?
A: 2.98

Q: For LPQETNLRLKVCKPQAPQKLDPTL, which protein stability index is on record?
A: 3.57

Q: With LPQETNLMLKVCKPQAPQKLDPTL as the variant, how does the protein stability index read?
A: 3.69

Q: Which protein stability index does the source give for LPQETNLVLKVCKPQAPQKLDPTL here?
A: 2.92

Q: For LPQETNLILKVCKPQAPQKLDPTL, which protein stability index is on record?
A: 2.37

Q: Which protein stability index does the source give for LPQHTNLTLKVCKPQAPQKLDPTL here?
A: 3.08

Q: With LPQYTNLTLKVCKPQAPQKLDPTL as the variant, how does the protein stability index read?
A: 2.98

Q: For LPQLTNLTLKVCKPQAPQKLDPTL, which protein stability index is on record?
A: 2.6

Q: With LPQRTNLTLKVCKPQAPQKLDPTL as the variant, how does the protein stability index read?
A: 2.64

Q: With LPQITNLTLKVCKPQAPQKLDPTL as the variant, how does the protein stability index read?
A: 2.51

Q: For LPQFTNLTLKVCKPQAPQKLDPTL, which protein stability index is on record?
A: 2.44

Q: For LPQKTNLTLKVCKPQAPQKLDPTL, which protein stability index is on record?
A: 3.46

Q: With LPQVTNLTLKVCKPQAPQKLDPTL as the variant, how does the protein stability index read?
A: 3.03

Q: For LPQQTNLTLKVCKPQAPQKLDPTL, which protein stability index is on record?
A: 3.74

Q: With LPQGTNLTLKVCKPQAPQKLDPTL as the variant, how does the protein stability index read?
A: 3.36

Q: Which protein stability index does the source give for LPQTTNLTLKVCKPQAPQKLDPTL here?
A: 3.59

Q: For LPQATNLTLKVCKPQAPQKLDPTL, which protein stability index is on record?
A: 3.77

Q: With LPQDTNLTLKVCKPQAPQKLDPTL as the variant, how does the protein stability index read?
A: 3.7

Q: With LPQPTNLTLKVCKPQAPQKLDPTL as the variant, how does the protein stability index read?
A: 4.22

Q: With LPQMTNLTLKVCKPQAPQKLDPTL as the variant, how does the protein stability index read?
A: 2.82

Q: Which protein stability index does the source give for LPQWTNLTLKVCKPQAPQKLDPTL here?
A: 2.32

Q: With LPQSTNLTLKVCKPQAPQKLDPTL as the variant, how does the protein stability index read?
A: 3.12

Q: Which protein stability index does the source give for LPQCTNLTLKVCKPQAPQKLDPTL here?
A: 2.37

Q: Which protein stability index does the source give for LPQNTNLTLKVCKPQAPQKLDPTL here?
A: 3.94

Q: With LPQETNMTLKVCKPQAPQKLDPTL as the variant, how does the protein stability index read?
A: 4.25

Q: With LPQETNCTLKVCKPQAPQKLDPTL as the variant, how does the protein stability index read?
A: 3.53

Q: Which protein stability index does the source give for LPQETNITLKVCKPQAPQKLDPTL here?
A: 3.4

Q: Which protein stability index does the source give for LPQETNPTLKVCKPQAPQKLDPTL here?
A: 4.42

Q: Which protein stability index does the source give for LPQETNDTLKVCKPQAPQKLDPTL here?
A: 4.94

Q: Which protein stability index does the source give for LPQETNYTLKVCKPQAPQKLDPTL here?
A: 3.89

Q: Which protein stability index does the source give for LPQETNRTLKVCKPQAPQKLDPTL here?
A: 4.67

Q: Which protein stability index does the source give for LPQETNHTLKVCKPQAPQKLDPTL here?
A: 4.51

Q: Which protein stability index does the source give for LPQETNATLKVCKPQAPQKLDPTL here?
A: 4.25

Q: With LPQETNQTLKVCKPQAPQKLDPTL as the variant, how does the protein stability index read?
A: 4.56

Q: Which protein stability index does the source give for LPQETNNTLKVCKPQAPQKLDPTL here?
A: 4.66

Q: Which protein stability index does the source give for LPQETNKTLKVCKPQAPQKLDPTL here?
A: 4.61

Q: Which protein stability index does the source give for LPQETNFTLKVCKPQAPQKLDPTL here?
A: 2.92

Q: Which protein stability index does the source give for LPQETNSTLKVCKPQAPQKLDPTL here?
A: 4.35

Q: With LPQETNGTLKVCKPQAPQKLDPTL as the variant, how does the protein stability index read?
A: 4.48

Q: Which protein stability index does the source give for LPQETNETLKVCKPQAPQKLDPTL here?
A: 4.79

Q: For LPQETNVTLKVCKPQAPQKLDPTL, which protein stability index is on record?
A: 4.21

Q: Which protein stability index does the source give for LPQETNTTLKVCKPQAPQKLDPTL here?
A: 4.33

Q: With LPQETELTLKVCKPQAPQKLDPTL as the variant, how does the protein stability index read?
A: 4.15

Q: For LPQETALTLKVCKPQAPQKLDPTL, which protein stability index is on record?
A: 3.88

Q: With LPQETFLTLKVCKPQAPQKLDPTL as the variant, how does the protein stability index read?
A: 3.36

Q: For LPQETTLTLKVCKPQAPQKLDPTL, which protein stability index is on record?
A: 3.71

Q: With LPQETVLTLKVCKPQAPQKLDPTL as the variant, how does the protein stability index read?
A: 3.29

Q: For LPQETDLTLKVCKPQAPQKLDPTL, which protein stability index is on record?
A: 4.38

Q: For LPQETILTLKVCKPQAPQKLDPTL, which protein stability index is on record?
A: 2.42

Q: With LPQETKLTLKVCKPQAPQKLDPTL as the variant, how does the protein stability index read?
A: 3.27

Q: Which protein stability index does the source give for LPQETYLTLKVCKPQAPQKLDPTL here?
A: 2.99

Q: With LPQETLLTLKVCKPQAPQKLDPTL as the variant, how does the protein stability index read?
A: 3.57

Q: With LPQETWLTLKVCKPQAPQKLDPTL as the variant, how does the protein stability index read?
A: 3.2

Q: With LPQETCLTLKVCKPQAPQKLDPTL as the variant, how does the protein stability index read?
A: 3.3

Q: With LPQETQLTLKVCKPQAPQKLDPTL as the variant, how does the protein stability index read?
A: 3.94

Q: For LPQETGLTLKVCKPQAPQKLDPTL, which protein stability index is on record?
A: 4.6

Q: With LPQETMLTLKVCKPQAPQKLDPTL as the variant, how does the protein stability index read?
A: 3.22

Q: For LPQETRLTLKVCKPQAPQKLDPTL, which protein stability index is on record?
A: 3.31

Q: For LPQETHLTLKVCKPQAPQKLDPTL, which protein stability index is on record?
A: 4.23

Q: With LPQETSLTLKVCKPQAPQKLDPTL as the variant, how does the protein stability index read?
A: 3.56

Q: For LPYETNLTLKVCKPQAPQKLDPTL, which protein stability index is on record?
A: 3.34

Q: For LPWETNLTLKVCKPQAPQKLDPTL, which protein stability index is on record?
A: 2.54
